Legend:
Details in all cases: both partners purified
[1] = biological target: T1, actin capping protein (CP), chicken α1/β1, CP_full (chicken, UniProt P13127 1-286; P14315 1-277); assay: SPR; competition: GST-CA92 immobilised, perfused with 50 nM wild type CP pre-mixed with various concentrations of CARMIL peptides (CA21 up to 500 nM)
[2] = biological target: CPβΔC (chicken α1 full/β1 1–244; a deletion mutant CP lacking the β-tentacle) (chicken, UniProt P13127 1-286; P14315 1-244); assay: crystal structure; complexes formed with 1.2–2.0-fold molar excess of V-1 or peptide and purified by gel filtration; hanging-drop vapor diffusion at 20°C; molecular replacement
[3] = biological target: T1, actin capping protein (CP), chicken …; assay: SPR; as a1, but koff >0.1 s^-1: amount of bound CP at the steady state plotted against the concentration of CP (Michaelis-Menten plots under saturated binding conditions)
[4] = biological target: T1, actin capping protein (CP), chicken …; assay: SPR; GST-fusion protein (GST-V-1, GST-CA or GST-CD) immobilised on a CM5 chip via anti-GST antibodies (up to 200 RU), CP perfused at 20 µl/min; 20°C; 50 mM KCl, 1 mM MgCl2, 0.005% Tween-20, 10 mM imidazole pH 7.0; 1:1 fit, KD from the kinetic rate constants (steady state for several fast-dissociating mutants)
CP (β) Y64F = CP (β) Y64F (chicken, UniProt P13127 1-286; P14315 1-277, Y64F); assay: as above
CP (β) D63N = CP (β) D63N (chicken, UniProt P13127 1-286; P14315 1-277, D63N); assay: SPR; as a1, but koff >0.1 s^-1: amount of bound CP at the steady state plotted against the concentration of CP (Michaelis-Menten plots under saturated binding conditions)
CP (β) D44N = CP (β) D44N (chicken, UniProt P13127 1-286; P14315 1-277, D44N); assay: as above
CP (β) D67N = CP (β) D67N (chicken, UniProt P13127 1-286; P14315 1-277, D67N); assay: as above

Binder	binding result [1]	binding result [2]	Kd [3] [nM]	koff [3] [s⁻¹]	Kd [4] [nM]	koff [4] [s⁻¹]	kon [4] [M⁻¹ s⁻¹]	other results
NLLHLTANRPKMPGRRLPGRFNG (CD2AP, human, residues 485–507; also called CARMIL peptide; source: synthetic peptide, Invitrogen) [CD23, human CD2AP (485–507)]	binds	binds						
RLEHFTKLRPKRNKKQQPTQA (CARMIL, mouse, residues 985–1005; also called CARMIL peptide; source: synthetic peptide, Invitrogen) [CA21, mouse CARMIL (residues 985–1005)]	binds	binds						
SYLAHPTRDRAKIQHSRRPPTRG (CKIP-1, human, residues printed as 148–70, read as 148–170 (23 residues); also called CARMIL peptide; source: synthetic peptide, Invitrogen) [CK23, human CKIP-1 (148–70)]	binds	binds						
GST-CA55 (domain or fragment, CARMIL, mouse, residues 962–1016) FPSVRQEKRSSGLISELPSEEGRRLEHFTKLRPKRNKKQQPTQAAVCTISILPQD			4000	> 0.1				
GST-CA76 (domain or fragment, CARMIL, mouse, residues 962–1037) FPSVRQEKRSSGLISELPSEEGRRLEHFTKLRPKRNKKQQPTQAAVCTISILPQDGEQNGLMGRVDEGVDEFFTKK					80	0.019	230000	
FDSLTVRTSKETDVVNFDDIASSENLLHLTANRPKMPGRRLPGRFNG (domain or fragment, CD2AP, human, residues 461–507; cloned into pGEX-6P-1) [GST-CD47]					18	0.029	1.6e+06	
FDSLTVRTSKETDVVNFDDIASSENLLHLTANRPKMPGRRLPG (domain or fragment, CD2AP, human, residues 461–503; cloned into pGEX-6P-1) [GST-CD43]			260	> 0.1				
GST-CA92 (domain or fragment, CARMIL, mouse, residues 962–1053) FPSVRQEKRSSGLISELPSEEGRRLEHFTKLRPKRNKKQQPTQAAVCTISILPQDGEQNGLMGRVDEGVDEFFTKKVTKMDCKRSSSRSSDA					3.3	0.0052	1.6e+06	Kd (CP (β) Y64F): 10 nM; koff (CP (β) Y64F): 0.0046 s⁻¹; kon (CP (β) Y64F): 460000 M⁻¹ s⁻¹; Kd (CP (β) D63N): 1400 nM; koff (CP (β) D63N): > 0.1 s⁻¹; Kd (CP (β) D44N): 7400 nM; koff (CP (β) D44N): > 0.1 s⁻¹; Kd (CP (β) D67N): 4900 nM; koff (CP (β) D67N): > 0.1 s⁻¹
FDSLTVRTSKETDVVNFDDIASSENLLHLTANRPKMPGRRLPGR (domain or fragment, CD2AP, human, residues 461–504; cloned into pGEX-6P-1) [GST-CD44]					62	0.033	540000	
GST-CA63 (domain or fragment, CARMIL, mouse, residues 962–1024) FPSVRQEKRSSGLISELPSEEGRRLEHFTKLRPKRNKKQQPTQAAVCTISILPQDGEQNGLMG			3300	> 0.1				

Reference: article PMC2897767, “Two Distinct Mechanisms for Actin Capping Protein Regulation—Steric and Allosteric Inhibition” (PLoS Biology, 2010)
